T1: Bud14, P27637
T1 sequence (P27637 247-328, looked up): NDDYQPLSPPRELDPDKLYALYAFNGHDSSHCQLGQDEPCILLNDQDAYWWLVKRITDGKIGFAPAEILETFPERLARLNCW

T2: Nbp2, Q12163
T2 sequence (Q12163 103-180, looked up): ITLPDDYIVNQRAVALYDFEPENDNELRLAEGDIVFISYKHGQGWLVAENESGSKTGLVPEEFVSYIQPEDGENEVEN

T3: Abp1, P15891
T3 sequence (P15891 535-592, looked up): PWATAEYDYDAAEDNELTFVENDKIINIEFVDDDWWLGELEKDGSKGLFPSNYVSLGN

T4: Myo5, Q04439
T4 sequence (Q04439 1072-1160, looked up): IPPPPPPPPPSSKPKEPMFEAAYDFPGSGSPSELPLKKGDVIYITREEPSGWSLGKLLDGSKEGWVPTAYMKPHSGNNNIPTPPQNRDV

T5: Pin3, Q06449
T5 sequence (Q06449 53-122, looked up): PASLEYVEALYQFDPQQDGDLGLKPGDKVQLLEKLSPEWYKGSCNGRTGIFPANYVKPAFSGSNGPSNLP

T6: Fus1, P11710
T6 sequence (P11710 432-512, looked up): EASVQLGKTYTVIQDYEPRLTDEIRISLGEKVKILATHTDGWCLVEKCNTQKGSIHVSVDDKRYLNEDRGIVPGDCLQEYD

T7: Bzz1-2, P38822
T7 sequence (P38822 568-633, looked up): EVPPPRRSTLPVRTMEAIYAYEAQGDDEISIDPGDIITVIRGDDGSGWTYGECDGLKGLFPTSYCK

T8: Sla1-3, P32790
T8 sequence (P32790 344-424, looked up): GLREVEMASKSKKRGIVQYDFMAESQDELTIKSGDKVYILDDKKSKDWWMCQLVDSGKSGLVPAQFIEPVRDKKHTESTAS

T9: Hse1, P38753
T9 sequence (P38753 208-285, looked up): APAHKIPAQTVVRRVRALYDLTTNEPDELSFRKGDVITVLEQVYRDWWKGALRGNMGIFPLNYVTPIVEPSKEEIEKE

T10: Lsb4, P32793
T10 sequence (P32793 402-468, looked up): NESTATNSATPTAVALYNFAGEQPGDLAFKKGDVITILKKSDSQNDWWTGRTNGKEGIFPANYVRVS

T11: Lsb1, P53281
T11 sequence (P53281 45-122, looked up): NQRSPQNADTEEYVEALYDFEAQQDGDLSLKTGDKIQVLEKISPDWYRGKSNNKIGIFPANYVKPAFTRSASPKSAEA

T12: Hof1, Q05080
T12 sequence (Q05080 590-669, looked up): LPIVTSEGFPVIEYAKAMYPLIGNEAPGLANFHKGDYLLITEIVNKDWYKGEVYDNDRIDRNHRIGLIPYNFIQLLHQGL

T13: Pex13, P80667
T13 sequence (P80667 295-386, looked up): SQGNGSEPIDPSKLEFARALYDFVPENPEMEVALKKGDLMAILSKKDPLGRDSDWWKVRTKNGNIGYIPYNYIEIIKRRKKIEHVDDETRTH

T14: Bzz1-1, P38822
T14 sequence (P38822 478-572, looked up): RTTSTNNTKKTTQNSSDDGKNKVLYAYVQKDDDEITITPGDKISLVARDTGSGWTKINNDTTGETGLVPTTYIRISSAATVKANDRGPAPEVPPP

T15: Cyk3, Q07533
T15 sequence (Q07533 1-83, looked up): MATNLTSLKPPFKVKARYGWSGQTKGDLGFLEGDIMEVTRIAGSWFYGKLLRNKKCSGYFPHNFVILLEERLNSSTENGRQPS

T16: Boi1, P38041
T16 sequence (P38041 1-86, looked up): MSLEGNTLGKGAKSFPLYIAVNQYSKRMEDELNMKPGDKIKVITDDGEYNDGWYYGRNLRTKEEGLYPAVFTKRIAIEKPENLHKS

T17: Cdc25, P04821
T17 sequence (P04821 50-136, looked up): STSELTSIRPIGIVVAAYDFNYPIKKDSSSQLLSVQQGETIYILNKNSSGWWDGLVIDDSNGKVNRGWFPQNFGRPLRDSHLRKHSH

T18: Sla1-2, P32790
T18 sequence (P32790 60-140, looked up): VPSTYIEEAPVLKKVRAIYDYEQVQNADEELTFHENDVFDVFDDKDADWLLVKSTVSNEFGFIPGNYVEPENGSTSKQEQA

T19: Bbc1, P47068
T19 sequence (P47068 1-78, looked up): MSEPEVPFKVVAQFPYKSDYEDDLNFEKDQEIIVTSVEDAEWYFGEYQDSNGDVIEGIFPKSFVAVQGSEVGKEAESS

T20: Boi2, P39969
T20 sequence (P39969 32-116, looked up): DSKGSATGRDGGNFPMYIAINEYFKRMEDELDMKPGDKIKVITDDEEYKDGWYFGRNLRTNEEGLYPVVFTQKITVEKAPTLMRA

T21: Lsb3, P43603
T21 sequence (P43603 385-451, looked up): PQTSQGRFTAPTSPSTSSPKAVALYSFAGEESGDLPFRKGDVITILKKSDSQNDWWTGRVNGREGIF


target: T1, Bud14, P27637; assay: SPOT array; settings: median of control spots 956

| SPOT intensity | Binder |
| --- | --- |
| 1 | TKPTPPPKPSHLKPK |
| 4 | KDKKTKPTPPPKPSH |
| 19 | FPPKRKPLLRPQRSD |

target: T2, Nbp2, Q12163; assay: SPOT array; settings: median of control spots 357

| SPOT intensity | Binder |
| --- | --- |
| 1 | TKPTPPPKPSHLKPK |
| 2 | KDKKTKPTPPPKPSH |
| 9 | FPPKRKPLLRPQRSD |

target: T3, Abp1, P15891; assay: SPOT array; settings: median of control spots 935

| SPOT intensity | Binder |
| --- | --- |
| 631 | TKPTPPPKPSHLKPK |
| 190 | KDKKTKPTPPPKPSH |
| 232 | FPPKRKPLLRPQRSD |

target: T4, Myo5, Q04439; assay: SPOT array; settings: median of control spots 471

| SPOT intensity | Binder |
| --- | --- |
| 0 | TKPTPPPKPSHLKPK |
| 0 | KDKKTKPTPPPKPSH |
| 0 | FPPKRKPLLRPQRSD |

target: T5, Pin3, Q06449; assay: SPOT array; settings: median of control spots 2171

| SPOT intensity | Binder |
| --- | --- |
| 0 | TKPTPPPKPSHLKPK |
| 0 | KDKKTKPTPPPKPSH |
| 19 | FPPKRKPLLRPQRSD |

target: T6, Fus1, P11710; assay: SPOT array; settings: median of control spots 1200

| SPOT intensity | Binder |
| --- | --- |
| 2 | TKPTPPPKPSHLKPK |
| 4 | KDKKTKPTPPPKPSH |
| 6 | FPPKRKPLLRPQRSD |

target: T7, Bzz1-2, P38822; assay: SPOT array; settings: median of control spots 4538

| SPOT intensity | Binder |
| --- | --- |
| 0 | TKPTPPPKPSHLKPK |
| 1 | KDKKTKPTPPPKPSH |
| 28 | FPPKRKPLLRPQRSD |

target: T8, Sla1-3, P32790; assay: SPOT array; settings: median of control spots 5475

| SPOT intensity | Binder |
| --- | --- |
| 1 | TKPTPPPKPSHLKPK |
| 0 | KDKKTKPTPPPKPSH |
| 25 | FPPKRKPLLRPQRSD |

target: T9, Hse1, P38753; assay: SPOT array; settings: median of control spots 1727

| SPOT intensity | Binder |
| --- | --- |
| 11 | TKPTPPPKPSHLKPK |
| 2 | KDKKTKPTPPPKPSH |
| 51 | FPPKRKPLLRPQRSD |

target: T10, Lsb4, P32793; assay: SPOT array; settings: median of control spots 397

| SPOT intensity | Binder |
| --- | --- |
| 5 | TKPTPPPKPSHLKPK |
| 0 | KDKKTKPTPPPKPSH |
| 81 | FPPKRKPLLRPQRSD |

target: T11, Lsb1, P53281; assay: SPOT array; settings: median of control spots 388

| SPOT intensity | Binder |
| --- | --- |
| 0 | TKPTPPPKPSHLKPK |
| 0 | KDKKTKPTPPPKPSH |
| 69 | FPPKRKPLLRPQRSD |

target: Bem1-2, P29366; assay: SPOT array; settings: median of control spots 4347
Sequence (P29366 139-227): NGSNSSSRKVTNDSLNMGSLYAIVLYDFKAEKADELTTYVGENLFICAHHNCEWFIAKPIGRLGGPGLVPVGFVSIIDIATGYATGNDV

| SPOT intensity | Binder |
| --- | --- |
| 0 | TKPTPPPKPSHLKPK |
| 5 | KDKKTKPTPPPKPSH |
| 19 | FPPKRKPLLRPQRSD |

target: T12, Hof1, Q05080; assay: SPOT array; settings: median of control spots 4086

| SPOT intensity | Binder |
| --- | --- |
| 3 | TKPTPPPKPSHLKPK |
| 0 | KDKKTKPTPPPKPSH |
| 4 | FPPKRKPLLRPQRSD |

target: T13, Pex13, P80667; assay: SPOT array; settings: median of control spots 1341

| SPOT intensity | Binder |
| --- | --- |
| 266 | TKPTPPPKPSHLKPK |
| 0 | KDKKTKPTPPPKPSH |
| 16 | FPPKRKPLLRPQRSD |

target: T14, Bzz1-1, P38822; assay: SPOT array; settings: median of control spots 4446

| SPOT intensity | Binder |
| --- | --- |
| 0 | TKPTPPPKPSHLKPK |
| 0 | KDKKTKPTPPPKPSH |
| 0 | FPPKRKPLLRPQRSD |

target: Myo3, P36006; assay: SPOT array; settings: median of control spots 468

| SPOT intensity | Binder |
| --- | --- |
| 0 | TKPTPPPKPSHLKPK |
| 0 | KDKKTKPTPPPKPSH |
| 30 | FPPKRKPLLRPQRSD |

target: GST; assay: SPOT array; settings: median of control spots 978

| SPOT intensity | Binder |
| --- | --- |
| 0 | TKPTPPPKPSHLKPK |
| 3 | KDKKTKPTPPPKPSH |
| 2 | FPPKRKPLLRPQRSD |

target: T15, Cyk3, Q07533; assay: SPOT array; settings: median of control spots 1451

| SPOT intensity | Binder |
| --- | --- |
| 1 | TKPTPPPKPSHLKPK |
| 2 | KDKKTKPTPPPKPSH |
| 3 | FPPKRKPLLRPQRSD |

target: T16, Boi1, P38041; assay: SPOT array; settings: median of control spots 1162

| SPOT intensity | Binder |
| --- | --- |
| 0 | TKPTPPPKPSHLKPK |
| 0 | KDKKTKPTPPPKPSH |
| 6 | FPPKRKPLLRPQRSD |

target: Bem1-1, P29366; assay: SPOT array; settings: median of control spots 4282
Sequence (P29366 55-141): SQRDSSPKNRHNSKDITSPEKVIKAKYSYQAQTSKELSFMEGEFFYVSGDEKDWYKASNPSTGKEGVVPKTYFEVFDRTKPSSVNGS

| SPOT intensity | Binder |
| --- | --- |
| 0 | TKPTPPPKPSHLKPK |
| 1 | KDKKTKPTPPPKPSH |
| 1 | FPPKRKPLLRPQRSD |

target: T17, Cdc25, P04821; assay: SPOT array; settings: median of control spots 969

| SPOT intensity | Binder |
| --- | --- |
| 2 | TKPTPPPKPSHLKPK |
| 2 | KDKKTKPTPPPKPSH |
| 27 | FPPKRKPLLRPQRSD |

target: T18, Sla1-2, P32790; assay: SPOT array; settings: median of control spots 712

| SPOT intensity | Binder |
| --- | --- |
| 0 | TKPTPPPKPSHLKPK |
| 1 | KDKKTKPTPPPKPSH |
| 1 | FPPKRKPLLRPQRSD |

target: T19, Bbc1, P47068; assay: SPOT array; settings: median of control spots 796

| SPOT intensity | Binder |
| --- | --- |
| 1 | TKPTPPPKPSHLKPK |
| 0 | KDKKTKPTPPPKPSH |
| 266 | FPPKRKPLLRPQRSD |

target: T20, Boi2, P39969; assay: SPOT array; settings: median of control spots 1161

| SPOT intensity | Binder |
| --- | --- |
| 0 | TKPTPPPKPSHLKPK |
| 0 | KDKKTKPTPPPKPSH |
| 1 | FPPKRKPLLRPQRSD |

target: T21, Lsb3, P43603; assay: SPOT array; settings: median of control spots 406

| SPOT intensity | Binder |
| --- | --- |
| 75 | TKPTPPPKPSHLKPK |
| 2 | KDKKTKPTPPPKPSH |
| 48 | FPPKRKPLLRPQRSD |

target: Sho1, P40073; assay: SPOT array; settings: median of control spots 1148
Sequence (P40073 287-367): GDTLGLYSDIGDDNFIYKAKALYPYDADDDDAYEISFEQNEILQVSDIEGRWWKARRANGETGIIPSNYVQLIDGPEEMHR

| SPOT intensity | Binder |
| --- | --- |
| 199 | TKPTPPPKPSHLKPK |
| 50 | KDKKTKPTPPPKPSH |
| 154 | FPPKRKPLLRPQRSD |

target: Rvs167, P39743; assay: SPOT array; settings: median of control spots 2707
Sequence (P39743 419-482): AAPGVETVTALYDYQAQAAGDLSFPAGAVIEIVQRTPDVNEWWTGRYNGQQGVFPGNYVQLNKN

| SPOT intensity | Binder |
| --- | --- |
| 0 | TKPTPPPKPSHLKPK |
| 1 | KDKKTKPTPPPKPSH |
| 25 | FPPKRKPLLRPQRSD |

From article PMC2756588
